Common to all, as to test: cell-based or functional assay
The target in test [1] is human NMUR2 (human, UniProt Q9GZQ4 1-415).
Test [2] concerns the target T1, human NMUR1 (human, UniProt Q9HB89 1-426).
T1 sequence (looked up): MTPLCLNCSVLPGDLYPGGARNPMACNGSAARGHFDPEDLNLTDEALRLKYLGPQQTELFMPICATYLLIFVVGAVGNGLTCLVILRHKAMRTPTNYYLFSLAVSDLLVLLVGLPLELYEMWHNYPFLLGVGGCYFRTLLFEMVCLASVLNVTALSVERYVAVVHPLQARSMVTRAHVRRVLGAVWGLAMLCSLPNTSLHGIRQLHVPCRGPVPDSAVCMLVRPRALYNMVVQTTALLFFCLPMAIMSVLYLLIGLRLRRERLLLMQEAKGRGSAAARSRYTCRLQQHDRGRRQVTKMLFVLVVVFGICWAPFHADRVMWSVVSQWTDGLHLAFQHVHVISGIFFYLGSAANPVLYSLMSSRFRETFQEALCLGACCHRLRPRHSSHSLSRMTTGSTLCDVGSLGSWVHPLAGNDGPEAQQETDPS

The target of test [3] is T2, mouse NMUR1-CTG (mouse, UniProt O55040 1-428).
T2 sequence (looked up): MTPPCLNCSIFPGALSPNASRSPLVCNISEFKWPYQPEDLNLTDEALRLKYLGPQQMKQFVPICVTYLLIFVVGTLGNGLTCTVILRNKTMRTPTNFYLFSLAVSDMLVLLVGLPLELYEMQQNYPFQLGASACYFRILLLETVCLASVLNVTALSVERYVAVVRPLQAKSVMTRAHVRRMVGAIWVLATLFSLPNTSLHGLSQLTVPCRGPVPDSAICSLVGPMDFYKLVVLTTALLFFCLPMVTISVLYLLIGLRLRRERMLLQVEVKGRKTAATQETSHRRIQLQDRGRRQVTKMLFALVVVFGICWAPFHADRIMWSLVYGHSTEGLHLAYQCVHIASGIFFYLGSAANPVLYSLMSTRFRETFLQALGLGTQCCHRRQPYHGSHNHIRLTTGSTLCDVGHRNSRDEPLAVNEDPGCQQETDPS

The target of test [4] is T3, mouse NMUR1-ATG (mouse, UniProt O55040 1-428).
T3 sequence (looked up): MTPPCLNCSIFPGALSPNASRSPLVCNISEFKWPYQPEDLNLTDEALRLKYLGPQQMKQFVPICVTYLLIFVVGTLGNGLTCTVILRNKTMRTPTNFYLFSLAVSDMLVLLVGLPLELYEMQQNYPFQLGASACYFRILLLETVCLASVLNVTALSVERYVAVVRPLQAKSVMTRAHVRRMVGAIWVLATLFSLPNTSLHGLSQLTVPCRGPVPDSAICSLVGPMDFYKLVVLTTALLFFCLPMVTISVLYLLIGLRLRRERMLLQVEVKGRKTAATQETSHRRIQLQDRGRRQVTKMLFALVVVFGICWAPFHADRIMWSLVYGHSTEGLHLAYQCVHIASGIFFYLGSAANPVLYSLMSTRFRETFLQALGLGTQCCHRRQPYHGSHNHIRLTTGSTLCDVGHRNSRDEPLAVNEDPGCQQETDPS

For test [5], the target named is mouse NMUR2 (mouse, UniProt Q8BZ39 1-395).
Sequence of mouse NMUR2 (Q8BZ39 whole entry): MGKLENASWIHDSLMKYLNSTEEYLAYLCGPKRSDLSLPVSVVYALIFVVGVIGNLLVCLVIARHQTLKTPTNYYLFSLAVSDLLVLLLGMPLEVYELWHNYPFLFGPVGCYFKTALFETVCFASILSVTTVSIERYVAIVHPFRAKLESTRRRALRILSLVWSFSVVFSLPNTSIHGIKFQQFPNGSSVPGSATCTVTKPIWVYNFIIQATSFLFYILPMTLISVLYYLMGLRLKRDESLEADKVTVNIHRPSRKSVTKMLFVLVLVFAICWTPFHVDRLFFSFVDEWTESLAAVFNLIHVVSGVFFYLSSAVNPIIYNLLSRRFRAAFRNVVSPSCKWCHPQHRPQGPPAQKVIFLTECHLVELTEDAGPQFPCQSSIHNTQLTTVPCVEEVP
For test [6], the target named is T4, rat NMUR1-ATG (rat, UniProt Q9JJI5 1-425).
T4 sequence (looked up): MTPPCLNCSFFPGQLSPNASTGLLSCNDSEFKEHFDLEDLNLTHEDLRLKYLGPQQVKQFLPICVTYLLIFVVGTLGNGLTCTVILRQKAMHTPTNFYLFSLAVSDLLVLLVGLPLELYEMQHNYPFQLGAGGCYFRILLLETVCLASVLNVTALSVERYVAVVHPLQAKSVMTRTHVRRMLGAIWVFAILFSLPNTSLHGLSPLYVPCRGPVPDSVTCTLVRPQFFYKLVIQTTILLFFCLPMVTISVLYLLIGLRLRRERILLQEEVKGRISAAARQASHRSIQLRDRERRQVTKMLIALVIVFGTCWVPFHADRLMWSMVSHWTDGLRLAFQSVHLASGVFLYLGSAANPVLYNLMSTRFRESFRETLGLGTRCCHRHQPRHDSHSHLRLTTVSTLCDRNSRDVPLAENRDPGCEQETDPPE

Test [7] concerns the target rat NMUR2 (rat, UniProt Q9ESQ4 1-395).

No end group written: not given here. *: point of attachment. (PEG)2 40 kDa = branched PEG of 40 kDa linked via the Cys side-chain thiol (code C2 = Cys(PEG)2 40 kDa); Cholesteroyl = cholesterol linked to a cysteine residue via the side-chain thiol; Succinimide(1-Et,3-yl) = CCN1C(=O)CC(*)C1=O

Sequence of rat NMUR2 (Q9ESQ4 whole entry): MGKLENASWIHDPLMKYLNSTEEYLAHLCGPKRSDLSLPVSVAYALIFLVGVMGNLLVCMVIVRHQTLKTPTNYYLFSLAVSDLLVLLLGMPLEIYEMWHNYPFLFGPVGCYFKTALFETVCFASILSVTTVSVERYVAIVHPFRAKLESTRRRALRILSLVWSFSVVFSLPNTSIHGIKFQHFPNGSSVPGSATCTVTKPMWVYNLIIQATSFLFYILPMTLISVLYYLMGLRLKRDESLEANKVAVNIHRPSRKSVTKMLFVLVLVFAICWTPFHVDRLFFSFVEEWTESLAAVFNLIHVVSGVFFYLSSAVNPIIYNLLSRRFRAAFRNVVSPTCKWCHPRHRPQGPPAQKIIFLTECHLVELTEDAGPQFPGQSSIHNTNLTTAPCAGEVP
Sequence of human NMUR2 (Q9GZQ4 whole entry): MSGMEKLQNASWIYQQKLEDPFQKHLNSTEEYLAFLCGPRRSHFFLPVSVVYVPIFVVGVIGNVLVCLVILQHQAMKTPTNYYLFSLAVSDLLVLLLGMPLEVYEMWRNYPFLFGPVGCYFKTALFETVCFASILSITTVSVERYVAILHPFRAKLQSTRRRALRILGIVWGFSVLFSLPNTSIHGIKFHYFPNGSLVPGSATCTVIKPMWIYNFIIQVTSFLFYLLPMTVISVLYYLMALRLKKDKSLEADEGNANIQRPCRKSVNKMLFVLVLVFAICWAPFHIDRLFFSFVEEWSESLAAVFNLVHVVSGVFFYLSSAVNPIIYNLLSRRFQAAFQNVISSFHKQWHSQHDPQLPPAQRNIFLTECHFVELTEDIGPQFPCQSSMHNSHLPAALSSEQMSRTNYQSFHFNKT

B1: NMU6 (peptide)
peptide: Ac-C(Succinimide(1-Et,3-yl))GYFLFRPRN-NH2
SMILES: CCN1C(=O)CC(SC[C@H](NC(C)=O)C(=O)NCC(=O)N[C@@H](Cc2ccc(O)cc2)C(=O)N[C@@H](Cc2ccccc2)C(=O)N[C@@H](CC(C)C)C(=O)N[C@@H](Cc2ccccc2)C(=O)N[C@@H](CCCNC(=N)N)C(=O)N2CCC[C@H]2C(=O)N[C@@H](CCCNC(=N)N)C(=O)N[C@@H](CC(N)=O)C(N)=O)C1=O
Consider B1, for which the “% Activity (FLIPR)” value in test [1] worked out at 100%; in test [2], 96.7%; in test [3] it was 100%; in test [4], 100%; in test [5], 100%; in test [6], 100%. Also, in test [7], the “% Activity (FLIPR)” value is 100%. In addition, the “EC50 (FLIPR)” value in test [1] stood at 1.5 nM; in test [2], 3.5 nM; in test [3], 2 nM; in test [4], 1 nM; in test [5], 0.7 nM; in test [6] it was 1 nM. In test [7], the “EC50 (FLIPR)” value amounted to 1.5 nM.
On to Ac-C((PEG)2 40 kDa)FRVDEEFQSPFASQSRGYFLFRPRN-NH2 [NMU9], for which the “% Activity (FLIPR)” value turned out to be 94.3% in test [1]; 94.4% in test [2]; 71.7% in test [3]; 95% in test [4]; 100% in test [5]; 100% in test [6]. Further, in test [7], the “% Activity (FLIPR)” value was 100%. Also, the “EC50 (FLIPR)” value in test [1] was determined as 91.1 nM; in test [2], 50.6 nM; in test [3], 1000 nM; in test [4], 45.7 nM; in test [5], 19 nM; in test [6] it was 9.7 nM. Further, the “EC50 (FLIPR)” value in test [7] came to 4.5 nM.
In the case of Ac-FRVDEEFQSPFASQSRPYFLFRPRN-NH2 [NMU5], the “% Activity (FLIPR)” value in test [1] was 98.1%; in test [2], 98.1%; in test [3], 100%; in test [4], 100%; in test [5], 100%; in test [6], 100%. Further, in test [7], the “% Activity (FLIPR)” value turned out to be 100%. In addition, the “EC50 (FLIPR)” value in test [1] came out at 2.5 nM; in test [2] it was 6.1 nM; in test [3] it was 11.9 nM; in test [4], 3.3 nM; in test [5] it was 1 nM; in test [6], 3.6 nM. The “EC50 (FLIPR)” value in test [7] is 2.3 nM.
As to GYFLFRPRN-NH2 [NMU3], the “% Activity (FLIPR)” value in test [1] came out at 100%; in test [2] it was 98.9%; in test [3] it was 100%; in test [4] it was 100%; in test [5], 100%; in test [6], 100%. For the same molecule, the “% Activity (FLIPR)” value in test [7] was 100%. Besides, the “EC50 (FLIPR)” value in test [1] was determined as 1.9 nM; in test [2], 5.6 nM; in test [3], 4.7 nM; in test [4], 2.9 nM; in test [5] it was 1 nM; in test [6] it was 0.7 nM. Further, the “EC50 (FLIPR)” value in test [7] came to 1.8 nM.
As to Ac-C(Cholesteroyl)FRVDEEFQSPFASQSRGYFLFRPRN-NH2 [NMU10], the “% Activity (FLIPR)” value in test [1] worked out at 31.3%; in test [2] it was 26.6%; in test [3], 69.2%; in test [4], 76.8%; in test [5], 70.5%; in test [6] it was 80.1%. Further, the “% Activity (FLIPR)” value in test [7] came out at 97.4%. Further, the “EC50 (FLIPR)” value in test [1] was 1000 nM; in test [2], 1000 nM; in test [3], 1000 nM; in test [4], 173 nM; in test [5] it was 1000 nM; in test [6], 201 nM. The “EC50 (FLIPR)” value in test [7] is 41.5 nM.
FRVDEEFQSPFASQSRPYFLFRPRN-NH2 [NMU4]: the “% Activity (FLIPR)” value worked out at 100% in test [1]; 97% in test [2]; 100% in test [3]; 100% in test [4]; 100% in test [5]; 100% in test [6]. Also, in test [7], the “% Activity (FLIPR)” value turned out to be 100%. The “EC50 (FLIPR)” value in test [1] came out at 2.6 nM; in test [2], 7.2 nM; in test [3], 11.6 nM; in test [4] it was 3.6 nM; in test [5], 1.2 nM; in test [6], 3.8 nM. Also, the “EC50 (FLIPR)” value in test [7] came out at 2.9 nM.
In the case of Ac-FRVDEEFQSPFASQSRGYFLFRPRN-NH2 [NMU2], the “% Activity (FLIPR)” value came out at 97.4% in test [1]; 99% in test [2]; 100% in test [3]; 100% in test [4]; 100% in test [5]; 89.2% in test [6]. Besides, the “% Activity (FLIPR)” value in test [7] is 100%. The “EC50 (FLIPR)” value in test [1] was 2.6 nM; in test [2], 5.5 nM; in test [3] it was 8.3 nM; in test [4], 2.1 nM; in test [5] it was 1.2 nM; in test [6], 3.3 nM. Besides, in test [7], the “EC50 (FLIPR)” value turned out to be 2.2 nM.
On to Ac-C((PEG)2 40 kDa)GYFLFRPRN-NH2 [NMU7], for which, in test [1], the “% Activity (FLIPR)” value stood at 91.8% and the “EC50 (FLIPR)” value came out at 36.1 nM. In test [2], the “% Activity (FLIPR)” value turned out to be 91.4% and the “EC50 (FLIPR)” value amounted to 79.6 nM.
As to FRVDEEFQSPFASQSRGYFLFRPRN-NH2 (not fully specified (N-terminus)) [NMU1], the “% Activity (FLIPR)” value in test [1] was 85%; in test [2], 83.7%; in test [5] it was 95.7%; in test [6], 59.3%; in test [7], 87.1%. For the same molecule, the “EC50 (FLIPR)” value in test [1] turned out to be 64.8 nM; in test [2] it was 81.4 nM; in test [5] it was 31 nM; in test [6] it was 718 nM; in test [7], 71.7 nM.
Regarding Ac-C(Cholesteroyl)GYFLFRPRN-NH2 [NMU11], the “% Activity (FLIPR)” value in test [1] was found to be 37.3%; in test [2] it was 20.6%; in test [3], 65%; in test [4] it was 81.3%; in test [5], 70.5%; in test [6] it was 50.9%. Also, in test [7], the “% Activity (FLIPR)” value is 33.2%. Moreover, the “EC50 (FLIPR)” value is 1000 nM in test [1]; 1000 nM in test [2]; 600 nM in test [3]; 1000 nM in test [4]; 1000 nM in test [5]; 316 nM in test [6]. Besides, in test [7], the “EC50 (FLIPR)” value is 1000 nM.

These data come from patent US20070244048A1 (published 2007).
